The test concerns the target T1, His-tagged KLHL2 protein (human, UniProt O95198 1-593).
T1 construct: Kelch Like Family Member 2 (KLHL2), human; source: recombinant
T1 sequence (looked up): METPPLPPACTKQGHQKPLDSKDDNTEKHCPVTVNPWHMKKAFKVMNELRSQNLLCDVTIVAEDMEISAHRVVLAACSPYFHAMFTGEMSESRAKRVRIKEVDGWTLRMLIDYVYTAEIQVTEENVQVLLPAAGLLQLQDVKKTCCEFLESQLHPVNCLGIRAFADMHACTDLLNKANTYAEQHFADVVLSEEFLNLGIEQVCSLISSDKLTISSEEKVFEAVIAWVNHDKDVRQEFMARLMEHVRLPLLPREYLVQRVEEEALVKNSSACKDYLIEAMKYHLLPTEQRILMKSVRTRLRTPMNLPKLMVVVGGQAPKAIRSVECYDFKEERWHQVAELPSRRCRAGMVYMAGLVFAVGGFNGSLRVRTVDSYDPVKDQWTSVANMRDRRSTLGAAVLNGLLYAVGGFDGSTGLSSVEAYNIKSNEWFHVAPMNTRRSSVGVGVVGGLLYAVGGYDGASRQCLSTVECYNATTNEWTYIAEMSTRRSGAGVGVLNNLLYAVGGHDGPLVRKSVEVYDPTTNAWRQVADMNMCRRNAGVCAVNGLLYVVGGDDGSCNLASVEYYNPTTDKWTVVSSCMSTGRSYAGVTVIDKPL
Briefly: pull-down; recombinant GST-UCK1 protein incubated with His-tagged KLHL2 protein; GST pull-down. Particulars: both partners purified.

B1: Recombinant GST-UCK1 protein (enzyme, human, UniProt Q9HA47 1-277, looked up)
chain: MASAGGEDCESPAPEADRPHQRPFLIGVSGGTASGKSTVCEKIMELLGQNEVEQRQRKVVILSQDRFYKVLTAEQKAKALKGQYNFDHPDAFDNDLMHRTLKNIVEGKTVEVPTYDFVTHSRLPETTVVYPADVVLFEGILVFYSQEIRDMFHLRLFVDTDSDVRLSRRVLRDVRRGRDLEQILTQYTTFVKPAFEEFCLPTKKYADVIIPRGVDNMVAINLIVQHIQDILNGDICKWHRGGSNGRSYKRTFSEPGDHPGMLTSGKRSHLESSSRPH
notes: uridine-cytidine kinase 1 (UCK1), human; source: recombinant
Consider B1, for which the binding result is “binds”.

Values taken from article PMC6956814, “Deubiquitinase USP28 inhibits ubiquitin ligase KLHL2-mediated uridine-cytidine kinase 1 degradation and confers sensitivity to 5'-azacytidine-resistant human leukemia cells” (Theranostics, 2020).
